Patent publication US20210317213A1 (AMBRX, published 2021)

Experiments:
[1] = biological target: Folate receptor-alpha (FOLR1) (human) (UniProt P15328); assay: summary table; FRα affinity over CD3 affinity
[2] = biological target: Folate receptor-alpha (FOLR1) (human) (UniProt P15328); assay: cell binding, SKOV-3 cells with 50 nM SFA; through the folate moiety
[3] = biological target: T1, human CD3 (human, UniProt P07766 23-207); assay: cell binding, human PBMC
T1 construct: whole, on cells; also called CD3 on human T-cells

[4] = biological target: T1, human CD3; assay: summary table; cell binding EC50, human PBMC
[5] = biological target: Folate receptor-alpha (FOLR1) (human) (UniProt P15328); assay: summary table; cell binding through the folate moiety
[6] = biological target: T2, cyno CD3 (cyno (cynomolgus monkey), UniProt Q95LI5 22-198); assay: cell binding, cynomolgus T-cells
T2 construct: whole, on cells; also called CD3 on Cynomolgus T-cells

[7] = biological target: T1, human CD3; assay: cell binding, human CD3, 50 nM SFA present
[8] = biological target: T1, human CD3; assay: cell binding, human T-cells; parameters: Bmax: unit not given here
[9] = biological target: Folate receptor-alpha (FOLR1) (human) (UniProt P15328); assay: cell binding, FOLRα-expressing KB cells; through the folate moiety
[10] = biological target: T2, cyno CD3; assay: cell binding, activated cyno PBMC
[11] = biological target: T1, human CD3; assay: cell binding, activated human PBMC
[12] = biological target: T1, human CD3; assay: cell binding, human CD3 (activated human PBMC); human CD3 (first number of the cell)
Procedure: (§1) Testing for CD3 binding with activated human and cyno PBMC: To distinguish between the humanized anti-CD3 antibodies generated, binding to human CD3 was tested using activated human PBMCs (n=2). The activation of PBMCs and subsequent fluorescence-based CD3 binding assays were followed as described previously (see for example, Angew Chem Int Ed Engl, 52(46):12101-12104, 2013). […] The binding of the remaining 6 humanized antibodies to both human and cyno CD3 using activated human and cyno PBMCs, respectively, was titrated. […] The six (6) humanized anti-CD3 antibodies were obtained as follows: Fab1, Fab2 and Fab3 wildtype were generated by combination of LC ((vL1.2+CL); (SEQ.ID. NO:7)) and HC ((vH1.2+CH1); (SEQ.ID. NO:1)), ((vH1.1+CH1); (SEQ.ID. NO:2)) and ((vH1.0+CH1); (SEQ.ID. NO:3)) respectively. Fab4, Fab 5 and Fab6 wildtype were generated by combination of LC ((vL1.1+CL); (SEQ.ID. NO:8)) and HC ((vH1.2+CH1); (SEQ.ID. NO:1)), ((vH1.1+CH1); (SEQ.ID. NO:2)) and ((vH1.0+CH1); (SEQ.ID. NO:3)) respectively.
(§2) Binding of Folate-conjugated Fabs to human and cyno CD3: Binding of E. coli produced and Folate-conjugated low-affinity variants of humanized anti-CD3 Fabs was performed as described in the above Examples.

[13] = biological target: T2, cyno CD3; assay: cell binding, cyno CD3 (activated cyno PBMC); cyno CD3 (second number of the cell)
Procedure: as §1, §2

[14] = biological target: T1, human CD3; assay: cell binding, activated human PBMC; E. coli protein
[15] = biological target: T2, cyno CD3; assay: cell binding, activated cyno PBMC; E. coli protein

T1 sequence (P07766 23-207): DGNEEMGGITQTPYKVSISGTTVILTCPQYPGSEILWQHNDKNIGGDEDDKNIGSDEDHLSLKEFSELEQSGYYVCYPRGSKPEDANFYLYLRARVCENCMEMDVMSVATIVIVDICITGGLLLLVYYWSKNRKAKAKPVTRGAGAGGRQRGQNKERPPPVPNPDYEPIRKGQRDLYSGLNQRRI
Folate receptor-alpha (FOLR1) (human), sequence (P15328 25-234): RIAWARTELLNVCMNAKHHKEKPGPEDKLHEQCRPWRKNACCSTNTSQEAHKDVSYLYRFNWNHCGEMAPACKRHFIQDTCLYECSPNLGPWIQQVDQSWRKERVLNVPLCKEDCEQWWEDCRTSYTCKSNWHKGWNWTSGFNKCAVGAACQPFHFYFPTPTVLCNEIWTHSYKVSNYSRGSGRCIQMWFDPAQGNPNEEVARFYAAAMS
T2 sequence (Q95LI5 22-198): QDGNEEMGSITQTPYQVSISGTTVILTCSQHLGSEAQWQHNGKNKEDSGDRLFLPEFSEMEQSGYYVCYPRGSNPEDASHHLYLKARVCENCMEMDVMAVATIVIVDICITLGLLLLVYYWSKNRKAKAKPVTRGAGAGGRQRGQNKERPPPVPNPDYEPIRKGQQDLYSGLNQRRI

B1: Fab1-HK129-LK172-BiFolate (Fab, V domains shown)
VH: EVQLVESGGGLVQPGGSLRLSCAASGFTFNTYAMNWVRQAPGKGLEWVARIRSKYNNYATYYADSVKDRFTISRDDSKNILYLQMNSLKTEDTAVYYCVRHGNFGNSYVSWFAYWGQGTLVTVSS
VL: QAVVTQEPSLTVSPGGTVTLTCRSSTGAVTTSNYANWVQQKPGQAPRGLIGGTNKRAPGTPARFSGSLLGGKAALTLSGAQPEDEAEYYCALWYSNLWVFGGGTKLTVLG
modifications: pAF at LK172 (Kabat) conjugated to folate (oxime); pAF at HK129 (Kabat) conjugated to folate (oxime)
notes: From E. coli; carries two folates
Binder B1 has an Affinity ratio (FRα:CD3) [1] of 3.5, an EC50 [2] of 10 nM and a Fold increase binding (vs Fab1-HK129-Folate) [2] of 4.4 fold. The EC50 [3] was 2.85 nM, the “Fold increase binding (vs Fab1-HK129-Folate)” value [3] was 0.86 fold and the CD3 binding affinity [4] was 2.85 nM. For the same binder, the FRα binding affinity [5] was 10 nM.

B2: Fab1-HK129-5KPEG-Folate (Fab, V domains shown)
VH: EVQLVESGGGLVQPGGSLRLSCAASGFTFNTYAMNWVRQAPGKGLEWVARIRSKYNNYATYYADSVKDRFTISRDDSKNILYLQMNSLKTEDTAVYYCVRHGNFGNSYVSWFAYWGQGTLVTVSS
VL: QAVVTQEPSLTVSPGGTVTLTCRSSTGAVTTSNYANWVQQKPGQAPRGLIGGTNKRAPGTPARFSGSLLGGKAALTLSGAQPEDEAEYYCALWYSNLWVFGGGTKLTVLG
modifications: pAF at HK129 (Kabat) conjugated to a bifunctional linker carrying folate and a linear 5K PEG (oxime)
notes: From E. coli; also called Fab1-5KPEG-Folate
With B2 the Bmax [6] was 19900, the Kd [6] was 3.31 nM and the EC50 [7] was 5.27 nM. For the same binder, the Affinity ratio (FRα:CD3) [1] was 26, the Bmax [8] was 23400 and the Kd [8] was 2.34 nM. It also gave a Bmax [9] of 134000, a Kd [9] of 3.69 nM and a CD3 binding affinity [4] of 5 nM. For the same binder, the EC50 [10] was 2.46 nM, the “Fold reduction in binding (vs Fab1-HK129-Folate)” value (“Fold reduction in binding” for short) [10] was 1.7 fold and the EC50 [11] was 5 nM. The “Fold reduction in binding” value [11] was 1.9 fold and the FRα binding affinity [5] was 129 nM.

B3: Fab1-HK129-20KPEG-Folate (Fab, V domains shown)
VH: EVQLVESGGGLVQPGGSLRLSCAASGFTFNTYAMNWVRQAPGKGLEWVARIRSKYNNYATYYADSVKDRFTISRDDSKNILYLQMNSLKTEDTAVYYCVRHGNFGNSYVSWFAYWGQGTLVTVSS
VL: QAVVTQEPSLTVSPGGTVTLTCRSSTGAVTTSNYANWVQQKPGQAPRGLIGGTNKRAPGTPARFSGSLLGGKAALTLSGAQPEDEAEYYCALWYSNLWVFGGGTKLTVLG
modifications: pAF at HK129 (Kabat) conjugated to a bifunctional linker carrying folate and a linear 20K PEG (oxime)
notes: From E. coli
With B3 the Affinity ratio (FRα:CD3) [1] was 26, the CD3 binding affinity [4] was 12 nM and the EC50 [10] was 11.8 nM. For the same binder, the “Fold reduction in binding” value [10] was 8.4 fold, the EC50 [11] was 12 nM and the “Fold reduction in binding” value [11] was 4.3 fold. It also gave an FRα binding affinity [5] of 310 nM.

B4: Fab8-HK129-Folate (Fab, V domains shown)
VH: EVQLVESGGGLVQPGGSLRLSCAASGFTFNTYAMNWVRQAPGKGLEWVGRIRSKYNNYATYYADSVKDRFTISRDDSKNILYLQMNSLKTEDTAVYYCVRHGNFGNSYVSWFAYWGQGTLVTVSS
VL: QAVVTQEPSLTVSPGGTVTLTCRSSTGAVTTSNYANWFQQKPGQAPRGLIGGTNKRAPGVPARFSGSLLGGKAALTLSGAQPEDEAEYYCALWYSNLWVFGGGTKLTVLG
modifications: pAF at HK129 (Kabat) conjugated to folate (oxime)
notes: also called Fab8 (E. coli, folate-conjugated)
Work on B4 yielded an EC50 [12] of 78.3 nM and an EC50 [13] of 130 nM.

B5: Fab1-HS115-pAF1 (Fab, V domains shown)
VH: EVQLVESGGGLVQPGGSLRLSCAASGFTFNTYAMNWVRQAPGKGLEWVARIRSKYNNYATYYADSVKDRFTISRDDSKNILYLQMNSLKTEDTAVYYCVRHGNFGNSYVSWFAYWGQGTLVTVSS
VL: QAVVTQEPSLTVSPGGTVTLTCRSSTGAVTTSNYANWVQQKPGQAPRGLIGGTNKRAPGTPARFSGSLLGGKAALTLSGAQPEDEAEYYCALWYSNLWVFGGGTKLTVLG
modifications: para-acetyl-phenylalanine (pAF) at HS115 (Kabat)
notes: From E. coli; also called Fab1 HS115pAF, unconjugated
Work on B5 yielded an EC50 [14] of 1.26 nM and an EC50 [15] of 1.76 nM.

B6: Fab9-HK129-Folate (Fab, V domains shown)
VH: EVQLVESGGGLVQPGGSLRLSCAASGFTFNTYAMNWVRQAPGKGLEWVGRIRSKYNNYATYYADSVKDRFTISRDDSKNSLYLQMNSLKTEDTAVYYCVRHGNFGNSYVSWFAYWGQGTLVTVSS
VL: QAVVTQEPSLTVSPGGTVTLTCRSSTGAVTTSNYANWFQQKPGQAPRGLIGGTNKRAPGVPARFSGSLLGGKAALTLSGAQPEDEAEYYCALWYSNLWVFGGGTKLTVLG
modifications: pAF at HK129 (Kabat) conjugated to folate (oxime)
notes: also called Fab9 (E. coli, folate-conjugated)
B6 gave an EC50 [12] of 69.1 nM and an EC50 [13] of 93.1 nM.
